The RNAGym collection of RNA variant scans (doi:10.1073/pnas.2313332121)

B1: TPR t1 (parent)
chain: GACCAAUCUGCCCUCAGAGCUCGAGAACAUCUUCGGAUGCAGAGGAGGCAGGCUUCGGUGGCGCGAUAGCGCCAACGUCCUCAACCUCCAAUGCAUCCCACCACAUGAUGAUGCCUGAAGAGCCUUGGUUUUUUG

Variants of: B1
Test: polymerase ribozyme fitness, log enrichment relative to wild type (log ratio); higher = more active; in vitro selection for triplet polymerase activity
Summary of the method: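 Libraries of mutants in each subunit of a heterodimeric triplet polymerase ribozyme were generated by PCR and transcribed. In triplicate, each went through one in vitro selection round: annealing with biotinylated primer, partner subunit and triplets; frozen incubation at −7 °C; gel excision of extended constructs; streptavidin-bead capture; RT-PCR. Fitness, taken from Illumina sequencing of input and output libraries, is the logarithm of a genotype's enrichment over wild-type enrichment, averaged across replicates with inverse-variance weights. The logarithm is base 2, and genotypes needed ≥10 input reads and ≥1 read per output to be kept.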

Variant | polymerase ribozyme fitness (log ratio)
G48A U59C C82A G93C U116G U131A | -4.51
C49A A91C G127A | -3.35
G48U C56G C64U C101A | -2.95
A50C G63U G69U U81G G128C | -3.4
G48A U106C | 0.21
A50G G120A | 0.658
A50C G52U C94A G117A | -6.56
G48C A83U U87A | -0.806
G48U U54C G71U U116C G122U | -2.51
G47U U87A | -2.55
G48U A121U | 0.519
G48A C73U A119G | 0.718
C49A C64U C123U | 0.702
G48U U92A | -3.38
C49U G51U C62U C80A G113A | -4.27
G48U U55G G61U | -0.0419
C49U G60C A103C U112A C123G | -4.76
C49G G71C A84U G110C | -6.35
A50C C94U | -0.435
G48A G63U | -0.443
G48A G77U | -2.11
C49U A90G | 0.52
C49G A119G C123G | 1.72
A50C G61U C114U A118G | -3.14

Variant | polymerase ribozyme fitness (log ratio)
C49A C82A | -1.17
C49A C102A A121U G122U U133C | -0.655
C49A C79G A103G U112G C114U U116C | -7.2
C49U G69A | -3.63
G48A G63A C101A | -2.45
G48A C70U | -1.3
A50C C73A U78G A90G | -1.98
G48A C70U C115A | -1.87
C49U C104U C124A | 1.02
C49G C85A G113U | -4.81
A50G G60C | -1.81
C49A G52U G71C | -1.75
C49U C73U | -0.609
C49U U54G U59A C79U C101A G113U | -5.96
G48U A84C C114U U116G U132A | -7.04
C49A C73U C88U C94U C123U U132G G135U | -1.74
G48C G77A U130G | -2.05
G48A G58A U78C G110A | -1.9
C49U G77U C123G | 0.718
G48C C73G G93A C124A | -1.39
C49G U55C A95C C98U | -3.54
C49U U106G | -2.35
C49A A50C | -0.838
A50U A84C U125A | -1.62

Variant | polymerase ribozyme fitness (log ratio)
C49A A90C | -1.35
C49A A90U | -0.956
G48U G63U C72U C86A A91C | -5.91
C49A C72U U109C U112A A121C | -6.03
A50C C62A | -2.99
A50C C62G | -2.66
G48U C72U C73A G127A G135C | -1.64
C49G C62A U78C | -1.5
G48A G52U U55C U125A | -2.1
G48U C79A U112A | -2.84
C49U G52U G61A G120A | -0.105
G48U C56G C80G | -3.4
A50G U87G | 0.406
C49A C56A G63A A75U A83C G113U C123G G127A | -5.69
C49U C72U | -0.879
A50C C56A | -0.326
C49A G52C U96C | -0.622
A50C C76G C82A G120C | -0.0695
C49A U96C G120U | -0.575
G48C U116G | -3.09
A50C G110C | -4.96
C49A U78A | -1.14
A50C G71U U130A | -0.942
G48U U59A U116C C124U | -0.336

Variant | polymerase ribozyme fitness (log ratio)
G48U G93A | -0.946
C49A G69U U81A C89A G93U C115G C123G | -2.93
G48A G63U C101A | -2.69
A50U C62U A91C | -3.88
G48C U106G | -1.5
G48C U106C | -1
C49G C89A | -2.67
A50C G71A U133C | -0.939
C49G G107A | -6.49
A50U C80A G122A G127C U129C | -5.15
C49U G110U | -2.6
G48A C85U | -0.302
G48U C62U A84C C115A | -1.79
C49G A83G C124G | 1.03
C49A G52C G60A U112G G127C | -2.8
G47U U78G | -1.6
C49A C53A U116C | -1.16
C49U C89U A105U | -4.2
G48U A50G G58C G117U G122A | -4.46
G48U G69U G135A | -1.62
G48C A83U A108G | -1.66
C49U G69U G117U | -2.25
C49A U131C | -0.0361
C49A U106G | -2.41

Variant | polymerase ribozyme fitness (log ratio)
C49A U106A | -0.478
A50G C53U G61C A90G G113A | -1.82
C49G G69U C115U | 0.956
A50G U129G | -0.967
C49U G117C | -3.03
C49U G58A U125A | -1.44
G48A C64U C73A | -0.705
C49G G128U | -2.74
C49G U109C | -4.72
C49A A103C | -5.44
G48A G60U C104A | -1.82
C49G U109A U112A | -5.85
G48A C49G C56U | -0.3
G48U C49G G63U | -1.73
G47U U96A | -2.1
G47U G120A | -0.734
G48U G117C | -4.06
G48C C85U G117U | -3.32
C49U G128A | -2.63
A50C A121G | 1.73
G48C G69U | -0.209
C49U G63C | -0.762
G48C U78C G120C C124G | 0.298
A50G C72G C79A U132C | -1.72

Variant | polymerase ribozyme fitness (log ratio)
G48C U55G C62A C79U A84C C85G G93U C124A | -0.918
G48C C72G | -0.77
A50U C62U C80U A84G A95U | -6.37
G48A G52A G60A C73U C82G C88U C102G | -5.86
A50G C85A | -2.34
C49U G77A A90U A91G C102A | -6.02
C49A U92G G117U C123U | -6.98
C49A G63U G117A | -3.12
G48U C64U G120A C123U | 0.28
A50U C72U A74G | -1.22
C49A G60C G127A U131A | -3.76
G48C C56A C72A U78A | -1.06
A50U A84G A111C | -4.92
C49A A66C U87A | -1.04
G48A U92A U106A | -3.9
C49G G135U | -1.27
G48C G71A A108G U112C G117U | -6.18
G48U C88A A91C | -2.5
C49A C73A G93U | -1.28
C49G C88U C94U | -0.799
G48A C123G | 0.439
C49U U132A | -0.342
G48A C56U C70A | -4.74
G48C G52A C102A A111C A119U | -4.33

Variant | polymerase ribozyme fitness (log ratio)
A50C C73A U92G U112A G135A | -3.24
C49U U112A | 0.631
C49G U59G C62U G122A | -1.61
C49G G63U | -2.09
C49U C53U C79A G120A G128A | -3.2
A50G C88G G120A C124U U126C | 0.11
G48A G63A U92C | -3.14
G48U C72A | -0.467
G48U G113A | -1.18
G48C C70U | -0.829
C49U A75U C79U U116A U130C | -4.3
C49A G57A G110C | -6.31
C49U A50U C82U | -1.71
A50G G117A | -1.18
C49U C72A C79G C104A | -4.65
G48A C89A | -1.71
G47U U78G G135A | -1.83
C49U C56U C72G C101G | -3.7
C49U A50C A111G | 0.0314
A50G U55C C88U G107C U112G C123G | -5.21
C49A U112A G127C | -0.179
G48A C115U C124U | -1.31
G47U U92G G117C | -7.27
